{"source": "paper PMC3576809", "biological_target": "recombinant full-length kif2a, MBP fusion protein (Xenopus) (UniProt Q91637)", "sequence (Q91637 whole entry, the tested form may be a part)": "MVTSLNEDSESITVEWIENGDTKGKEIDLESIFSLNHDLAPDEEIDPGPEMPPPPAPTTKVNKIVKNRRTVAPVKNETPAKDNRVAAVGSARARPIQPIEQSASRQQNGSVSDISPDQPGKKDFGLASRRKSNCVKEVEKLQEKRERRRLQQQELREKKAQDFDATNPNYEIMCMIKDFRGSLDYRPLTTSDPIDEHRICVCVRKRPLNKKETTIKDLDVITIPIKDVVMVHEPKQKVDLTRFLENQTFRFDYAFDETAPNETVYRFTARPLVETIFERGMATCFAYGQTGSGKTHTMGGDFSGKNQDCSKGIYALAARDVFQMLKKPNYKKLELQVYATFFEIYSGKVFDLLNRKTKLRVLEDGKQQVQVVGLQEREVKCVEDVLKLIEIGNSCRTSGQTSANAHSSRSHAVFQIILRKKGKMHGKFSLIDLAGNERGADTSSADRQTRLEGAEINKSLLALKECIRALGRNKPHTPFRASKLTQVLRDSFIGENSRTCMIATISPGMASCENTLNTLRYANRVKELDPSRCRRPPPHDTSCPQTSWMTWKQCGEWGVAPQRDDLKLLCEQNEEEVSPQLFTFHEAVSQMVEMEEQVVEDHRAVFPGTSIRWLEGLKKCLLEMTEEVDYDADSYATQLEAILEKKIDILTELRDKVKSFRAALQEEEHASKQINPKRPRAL", "test": "pull-down; 1 µM MBP-kif2a added to stage 3 embryo cytoplasmic extract for 15 min, retrieved on amylose resin (15 min), washed with PBS with 0.01% Tween; importin α immunoblot quantified, normalized to kif2a intensity", "data": [{"substance": "importin α (endogenous, Xenopus laevis egg and embryo extracts) (natural protein)", "values": [{"measurement": "fold of importin α retrieved from stage 3 extracts against stage 8 extracts", "value": 10, "unit": "fold"}]}]}
